Data taken from patent publication US20140329761A1, “PREVENTION AND TREATMENT OF ACUTE INFLAMMATORY CONDITIONS” (The University of Queensland, priority 2011, published 2014).
Where no end group is shown, it is not given here. [ ]: non-standard residue; d: D form. Cha = N[C@@H](CC1CCCCC1)C(=O)O

Assays:
C3aR [1] = biological target: T1, C3aR (Homo sapiens, UniProt Q16581); conditions: cited from earlier work
T1 sequence (Q16581 1-482): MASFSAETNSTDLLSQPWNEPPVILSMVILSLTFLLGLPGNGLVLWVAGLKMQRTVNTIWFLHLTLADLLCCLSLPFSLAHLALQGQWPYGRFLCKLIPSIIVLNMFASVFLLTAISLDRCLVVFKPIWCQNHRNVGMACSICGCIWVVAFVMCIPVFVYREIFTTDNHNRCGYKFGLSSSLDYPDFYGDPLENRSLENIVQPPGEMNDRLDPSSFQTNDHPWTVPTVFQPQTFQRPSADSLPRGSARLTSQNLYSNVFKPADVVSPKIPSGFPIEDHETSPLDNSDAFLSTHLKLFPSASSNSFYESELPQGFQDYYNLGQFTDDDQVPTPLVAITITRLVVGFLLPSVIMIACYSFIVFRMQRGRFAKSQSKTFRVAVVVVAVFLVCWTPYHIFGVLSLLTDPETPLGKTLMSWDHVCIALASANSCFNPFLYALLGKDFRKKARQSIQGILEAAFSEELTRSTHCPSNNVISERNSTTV

C3aR [2] = biological target: T2, C3aR (Mus musculus, UniProt O09047); assay: Mouse intestinal I/R injury: circulating neutrophils (white blood cell differentials); format: in vivo, mice; conditions: WT mice, I/R induced intestinal injury, 0.01 mg/kg i.v. 10 minutes prior to ischemia, compared with vehicle pre-treated WT mice
T2 construct: endogenous in cells; host or cells: live wild-type C57BL/6 mice (in vivo; receptor on neutrophils and other bone-marrow-derived cells)
T2 sequence (O09047 1-477): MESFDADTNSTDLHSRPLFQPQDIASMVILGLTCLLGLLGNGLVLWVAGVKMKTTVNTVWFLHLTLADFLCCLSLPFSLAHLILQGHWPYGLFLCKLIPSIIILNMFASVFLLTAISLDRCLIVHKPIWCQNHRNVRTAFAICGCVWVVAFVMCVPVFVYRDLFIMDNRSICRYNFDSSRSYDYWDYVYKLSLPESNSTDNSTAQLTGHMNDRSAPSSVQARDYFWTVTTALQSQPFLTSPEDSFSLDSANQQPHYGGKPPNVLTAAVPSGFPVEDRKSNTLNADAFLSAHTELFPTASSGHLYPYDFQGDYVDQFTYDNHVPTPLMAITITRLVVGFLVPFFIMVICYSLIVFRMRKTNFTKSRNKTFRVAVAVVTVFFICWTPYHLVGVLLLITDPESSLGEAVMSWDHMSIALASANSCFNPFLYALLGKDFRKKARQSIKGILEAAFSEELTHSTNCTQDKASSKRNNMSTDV
Protocol: (§1) Male C57BL/6 or C3aR knockout mice were fasted for around 12 hours before experimentation. Mice were anesthetized with 2% isoflurane and oxygen at 2 L/minute throughout the experiment. […] An immediate check of complete shut-off of the blood supply to the small intestine was confirmed visually (ischemia). The abdomen was then covered with moist gauze. After thirty minutes of the ischemia episode, the ligature was removed and restoration of blood supply to the intestine was confirmed visually (reperfusion). The midline laparotomy incision was then closed. Mice were administrated with saline (100 μL) intraperitoneally every hour to compensate for fluid loss. The same procedure was performed on sham-operated mice including a loop of ligature around their arteries; however the arteries were not occluded. After two and half hours of the reperfusion episode, mice were sacrificed, and tissues and blood were harvested. Their small intestines (0.5-1 cm pieces) were snap-frozen in liquid nitrogen and stored at −80° C. for later assays. […]
(§2) To determine white blood cell populations, cell differentials were employed using blood smears and The Kwik-Diff Staining System (Thermo Shandon). […] Samples were counted in triplicate, with a total 100 white blood cells per slide counted, and the number of neutrophils expressed as a percentage of total white blood cells.

C3aR [3] = assay: as above; format: in vivo, mice; conditions: C3aR-/- mice, gut ischemia/reperfusion, 0.01 mg/kg i.v. 10 minutes prior to ischemia
Protocol: as §1, §2

C3aR [4] = biological target: T2, C3aR; assay: Mouse intestinal I/R injury: histopathology of small intestine; format: in vivo; conditions: WT mice, 0.01 mg/kg i.v. pre-treatment, compared with vehicle pre-treated WT mice; scale 0-5
Protocol: as §1
At sacrifice, a section of ileum (0.5 cm) was removed and fixed in 4% paraformaldehyde in phosphate buffered saline (PBS) for at least 72 hours. […] Histological assessment was carried out in a blinded fashion using light microscopy at 40× magnification, and scored for severity on a scale of 0-5. […]

C3aR [5] = biological target: T2, C3aR; assay: Mouse intestinal I/R injury: alkaline phosphatase (ALP) measurement; format: in vivo; conditions: WT mice, I/R induced intestinal injury, 0.01 mg/kg i.v. pre-treatment, compared with vehicle pre-treated WT mice
Protocol: as §1
Intestinal ALP concentrations were measured according to the manufacturer's instructions (ALP reagents; Thermo Scientific, USA). […] The absorbance at 405 was immediately measured in a kinetic manner for 10 minutes at 37° C. The results were calculated as follows: Activity in U/L=ΔAbs/min×Factor.

C3aR [6] = biological target: T2, C3aR; assay: Mouse intestinal I/R injury: myeloperoxidase (MPO) activity of small intestine; format: in vivo; conditions: WT mice, 0.01 mg/kg i.v. pre-treatment, compared with vehicle pre-treated WT mice
Protocol: (§3) Male C57BL/6 or C3aR knockout mice were fasted for around 12 hours before experimentation. Mice were anesthetized with 2% isoflurane and oxygen at 2 L/minute throughout the experiment. […] An immediate check of complete shut-off of the blood supply to the small intestine was confirmed visually (ischemia). The abdomen was then covered with moist gauze. After thirty minutes of the ischemia episode, the ligature was removed and restoration of blood supply to the intestine was confirmed visually (reperfusion). The midline laparotomy incision was then closed. Mice were administrated with saline (100 μL) intraperitoneally every hour to compensate for fluid loss. The same procedure was performed on sham-operated mice including a loop of ligature around their arteries; however the arteries were not occluded. After two and half hours of the reperfusion episode, mice were sacrificed, and tissues and blood were harvested. Their small intestines (0.5-1 cm pieces) were snap-frozen in liquid nitrogen and stored at −80° C. for later assays. […] The blood was centrifuge at 14,000 rpm for 15 min at 4° C., and the resulting plasma stored at −80° C. […]
Snap-frozen ileum (1 cm), excised at sacrifice, was briefly cleaned with ice-cold PBS and weighed. […] MPO activity was assayed spectrophotometrically at the absorbance 460 nm. […] The absorbance was measured using a Rainbow 96-well plate reader after 20 minutes.

C3aR [7] = biological target: T2, C3aR; assay: Mouse intestinal I/R injury: plasma cytokines (Cytometric Bead Array); format: in vivo; conditions: WT ischemia/reperfusion mice, 2.5 hours after ischemia
Protocol: as §3
Cytokines were measured using a Cytometric Bead Array from Becton Dickinson (flow cytometry that allows for the quantification of multiple cytokines simultaneously), using plasma isolated from mice at termination.

C3aR [8] = biological target: T2, C3aR; assay: Mouse spinal cord injury (SCI): circulating white blood cell populations and total WBC counts; format: in vivo; conditions: SCI mice, 4 doses of 1 mg/kg s.c. every 6 hours, 24 hours post-injury
Protocol: Experimental mice were anaesthetized using Zoletil (50 mg/kg) and xylazine (10 mg/kg). Next, a dorsal laminectomy was performed on the 9th thoracic vertebra to expose the underlying spinal cord. Mice were then subjected to a force-controlled, moderate-severe (70 kdyne) contusion injury of the spinal cord using the Infinite Horizon impactor device (Ghasemlou et al., 2005). Post-operatively, mice were given antibiotics for 5 days (Gentamycin; 1 mg/kg) as well as a single dose of Hartmann's solution (1 ml) to prevent dehydration and to compensate for loss of bodily fluids. Bladders of spinal cord-injured mice were voided manually twice daily. […]
Blood samples were collected from experimental animals either via retro-orbital eye bleeds or heart punctures at the time of sacrifice. […] Next, the number of white blood cells per set sample volume was determined using the Countess automated cell counter (Invitrogen) as per manufacturer's instructions. […]
These experiments were performed to test whether C3aR can be used as a therapeutic target to improve the outcome from neurotraumatic events (neuronal death and axonal degeneration at sites of SCI are inevitably linked to neuroinflammation). […] The effect of EP67 treatment on circulating white blood cell populations after SCI relative to saline-treated controls was assessed via flow cytometry and total WBC counts as detailed above.

For FLTChaAR (FLT[Cha]AR), the “functional antagonism at C3aR” value (C3aR [1]; literature (Scully et al. 2010), human C3aR) is listed as “functional antagonist of both C3a and the short peptide agonist FWTLAR”.

For WWGKKYRASKLGLAR (A synthetic EP141), the “percentage of circulating neutrophils” value (C3aR [2]) was “significantly (P<0.02) lower”, the “effect on circulating neutrophils (neutrophil mobilization) in C3aR knockout mice” value (C3aR [3]) was “inactive” and the “I/R induced intestinal injury (histopathological scores of the small intestine)” value (C3aR [4]) was “significantly reduced”. For the same substance, the “plasma ALP levels” value (C3aR [5]) was “significantly (P<0.02) reduced”, the “I/R induced MPO activity of the small intestine” value (C3aR [6]) was “significantly (P<0.05) lower” and the C3aR agonist activity (C3aR [1]; literature (Ember et al. 1991; Scully et al. 2010; Denonne et al. 2007)) was “highly potent and selective C3aR agonist”. For the same substance, the “IL-6 levels in plasma” value (C3aR [7]) was “no significant change”.

In the case of YSFKDMP(MeL)aR [EP67], the “reduction in the blood granulocyte number” value (C3aR [8]; compared to vehicle-treated control mice with SCI) is reported as 30% and the “total WBC count” value (C3aR [8]; relative to vehicle-treated controls, p=0.07, data not shown) is reported as “trend towards a decrease”.
